{
  "source": "patent US8183228B2",
  "about": "“Anticoagulant antithrombotic dual inhibitors comprising a biotin label” (MSD OSS B.V. Netherlands, priority 2005, dated 2012)",
  "assay": "Pharmacokinetics - neutralization experiment with avidin i.v. in rat",
  "format": "in vivo",
  "conditions": "s.c. 500 nmol/kg",
  "experimental": "3.2 Pharmacokinetics—Neutralization Experiment:\nRats were treated with compound 10, 12, or 27 at a dose of 100 nmol/kg s.c. At t=1 h, a blood sample was taken and 10 mg/kg of Avidin (from egg white, Sigma) was administered i.v. to the rats treated with compound 10 or 12. Blood was sampled at 0.5-1-3-6 and 23 hours subsequently. The blood was treated as described in the pharmacokinetic experiment and the concentration of the samples was determined by measuring the (residual) anti-Xa activity. (FIG. 8)\nIn a separate experiment compound 10, 17 or 26 was administered at a dose of 500 nmol/kg s.c. after which blood was collected at 24 hours. Then 10 mg/kg avidin was administered intravenously and blood was collected at 25 and 26 hours. (FIG. 9)",
  "note": "Structures can show the parent of a compound that is named as a salt.",
  "data": [
    {"smiles": "CO[C@H]1O[C@H](COS(=O)(=O)O)[C@@H](O[C@@H]2O[C@@H](C(=O)O)[C@@H](O[C@H]3O[C@H](COS(=O)(=O)O)[C@@H](O[C@@H]4O[C@H](C(=O)O)[C@@H](O[C@H]5O[C@H](COS(=O)(=O)O)[C@@H](OCCOCCOCCOCCNC(=O)[C@H](CCCCN(C)C(=O)CCCC[C@@H]6SC[C@@H]7NC(=O)N[C@@H]76)NC(=O)COCCOCCOCCOCCNC(=O)c6cccc(S(=O)(=O)N[C@@H](Cc7ccc(OCCCCC8CCNCC8)cc7)C(=O)O)c6)[C@H](OC)[C@H]5OC)[C@H](OC)[C@H]4OC)[C@H](OS(=O)(=O)O)[C@H]3OS(=O)(=O)O)[C@H](OC)[C@H]2OC)[C@H](OS(=O)(=O)O)[C@H]1OS(=O)(=O)O", "note": "[Compound 26, sodium salt]", "values": [
      {"measurement": "level at time molar at 24 h", "setting": "plasma, sc, 24 h, before avidin, read-out: Plasma level T = 24 h", "value": "1070 ± 58", "unit": "nM"},
      {"measurement": "Plasma level T = 26 h", "setting": "2 hours after avidin 10 mg/kg i.v. at t = 24 h", "value": "361 ± 26", "unit": "nM"},
      {"measurement": "% reduction of plasma concentration", "setting": "within 2 hours after avidin 10 mg/kg i.v. at t = 24 h, sodium salt", "value": 66, "unit": "%"}
    ]}
  ]
}
